In patent publication US20110059060A1:

Target: thuricin CD (Bacillus thuringiensis DPC 6431)

Substance	antimicrobial activity after enzyme treatment (well diffusion assay, C. difficile ATCC 43593) (% reduction in activity)
pepsin (enzyme)	50
trypsin (enzyme)	20
